# Where two headings read alike, the source gives them in different places.
# B1: tetranectin (protein, listed as Homo sapiens)
# chain: EPPTQKPKKIVNAKKDVVNTKMFEELKSRLDTLAQEVALLKEQQALQTVCLKGTKVHMKCFLAFTQTKTFHEASEDCISRGGTLGTPQTGSENDALYEYLRQSVGNEAEIWLGLNDMAAEGTWVDMTGARIAYKNWETEITAQPDGGKTENCAVLSGAANGKWFDKRCRDQLPYICQFGIV
# What was measured:
# [1] = test system: HMGB1 release, primary murine peritoneal macrophages; experiment: LPS- or SAA-induced HMGB1 release in primary murine peritoneal macrophages (Western blotting); assay type: cell-based; settings: for inhibition of LPS- or SAA-induced HMGB1 release: primary murine peritoneal macrophages, 16 h, serum-free OPTI-MEM I, TN from HEK293 or E. coli
# Method: A, B, Primary murine peritoneal macrophages. C, Primary human peripheral blood mononuclear cells (HuPBMCs). Murine macrophages or human monocytes (HuPBMCs) were cultured in serum-free OPTI-MEM I medium, and stimulated with LPS or SAA for 16 h at the indicated concentrations. The extracellular HMGB1 levels were determined by Western blotting, and expressed as % of maximal stimulation by LPS or SAA alone.
# Immune-modulating properties of tetranectin: To explore TN's immune-modulating properties, its effects on the LPS- and SAA-induced HMGB1 release were examined in murine macrophage and human monocyte cultures. […] This inhibition was TN-dose-dependent, evident at concentrations as low as 5.0 μg/ml, and became more dramatic (with 50-100% inhibition) at higher doses.
# Effects of TN on the LPS-, IFN-γ-, or SAA-induced HMGB1 release. To elucidate the regulatory mechanisms of HMGB1 release, we will examine the impact of TN and its peptide agonists on the HMGB1 release induced by a wide array of inflammatory stimuli including the crude LPS [75], IFN-γ [76] and SAA [77], in macrophage and monocyte cultures. Primary peritoneal macrophages will be isolated from the Balb/C mice (both male and female, 7-8 weeks, 20-25 g) at 2-3 days after intraperitoneal injection of 2 ml thioglycollate broth (4%, Difco, Detroit, Mich.) as previously described. Human peripheral blood mononuclear cells (HuPBMCs) will be isolated from human blood obtained from the Long Island Blood Bank (NY) by density gradient centrifugation through Ficoll as previously described. At 80-90% confluence, macrophage/monocyte cultures will be stimulated with the crude LPS (Cat. No. L3012, Sigma-Aldrich), IFN-γ (Cat. No. 14777, Sigma-Aldrich), or SAA (Cat. No. 300-13, PeproTech) at different concentrations and for various time periods. The extracellular levels of HMGB1 in the culture medium will be determined by Western blotting as previously described.
# [2] = test system: GRO/CXCL1 and ENA-78/CXCL5 secretion, HuPBMCs; experiment: Cytokine/chemokine secretion by HuPBMCs (Cytokine Antibody Arrays); assay type: cell-based; settings: primary human monocytes / HuPBMCs, TN 20 μg/ml, 16 h
# Method: Human blood was purchased from the Long Island Blood Bank, and HuPBMCs were isolated by density gradient centrifugation through Ficoll, and stimulated with recombinant TN (20 μg/ml) expressed in HEK293 or E. coli for 16 h. The extracellular levels of cytokines and chemokines were determined by Cytokine Antibody Arrays.
# In light of the protective roles of these neutrophil-attracting chemokines, CXCL1/KC [67,68] and CXCL5/ENA-78 [69,70] in LSI, it is important to determine whether TN could modulate leukocyte infiltration to facilitate potential pathogen elimination during sepsis.
# HMGB1 = target: T1, HMGB1 (Homo sapiens, UniProt P09429); experiment: BIAcore surface plasmon resonance assay of HMGB1-TN interaction; settings: TN immobilized on CM5 chip, HMGB1 as analyte; read-out: estimated (apparent) Kd of HMGB1 binding to TN
# T1 sequence (P09429 1-215): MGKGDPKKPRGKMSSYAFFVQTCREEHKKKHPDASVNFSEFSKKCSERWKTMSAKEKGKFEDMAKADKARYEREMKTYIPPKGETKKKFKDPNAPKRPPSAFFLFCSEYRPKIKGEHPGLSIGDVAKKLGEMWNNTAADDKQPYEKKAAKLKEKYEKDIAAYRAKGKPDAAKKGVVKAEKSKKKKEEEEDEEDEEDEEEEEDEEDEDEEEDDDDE
# Method: FIG. 11: BIAcore Surface Plasmon Resonance Assay of HMGB1-TN Interaction. Recombinant TN was immobilized on the sensor chip, and HMGB1 was applied as an analyte at different concentrations. The response units were recorded over time, and the binding affinity was estimated as the apparent Kd.
# Effects of TN supplementation on the sepsis-induced coagulation. This laboratory has recently discovered that some pharmacological agents (e.g., tanshinones) inhibit HMGB1 release by facilitating its internalization into macrophage cytoplasmic vesicles via the clathrin- and caveolin-dependent endocytosis. Similarly, some endogenous proteins (e.g., haptoglobin) can also capture HMGB1 to enhance its cellular uptake through a CD163 receptor-mediated endocytosis. Thus it is determined whether TN can capture HMGB1 and enhance its internalization into macrophages/monocytes. The TN-HMGB1 interaction is investigated by employing the surface plasmon resonance (SPR) technology as previously described. Briefly, the highly purified recombinant TN or HMGB1 is covalently immobilized on a CM5 chip, and HMGB1 or TN is applied to the chip at various concentrations, before the SPR response will be monitored using a BIAcore system as previously described.
# [3] = test system: circulating D-dimer, endotoxemic Balb/C mice; experiment: Plasma D-dimer level in endotoxemic mice (ELISA); assay type: in vivo; settings: 24 h post endotoxemia
# Method: Venous blood was obtained from normal healthy and endotoxemic, Balb/C mice at 24 h post endotoxemia in the absence or presence of recombinant TN. The plasma level of fibrin degradation product (FDP's, e.g., D-dimer) was measured using commercial ELISA kit (Cat. No. EKU03631, Biomatik) as per the manufacturers' instructions. *, P<0.05 as compared to the positive control (+LPS alone).
# In light of HMGB1's key role in the platelet activation/aggregation and its possible interaction with TN protein, the impact of TN or TN-specific peptide agonists on the pro-fibrinolytic activities is evaluated by measuring the plasma level of fibrin degradation products (FDP's, e.g., D-dimer) using commercial ELISA kits (Cat. No. EKU03631, Biomatik) as per the manufacturers' instructions. A parallel elevation of D-dimer levels is indicative of a possible acceleration of the fibrinolysis cascade by the TN treatment. However, a decrease in the D-dimer concentration is indicative of a reduction of either the plasmin-mediated fibrinolysis or the thrombin-mediated coagulation. […] Given the complex roles of fibrinolysis in sepsis, therapeutic agents that could control coagulation/fibrinolysis balance, while maintaining the host defense at the infectious foci, can be useful for understanding the complex pathogenesis of lethal systemic inflammatory diseases.
# HMGB1 release = experiment: LPS/SAA-induced HMGB1 release, summary statement (cells not specified); assay type: cell-based
# plasminogen (PLMG) = plasminogen (PLMG) (Homo sapiens, UniProt P00747); settings: cited from earlier work
# [4] = target: apolipoprotein A1 (Apo-A1); settings: ref [58]; read-out: Kd of TN binding to Apo-A1; cited from earlier work
# Sequence of plasminogen (PLMG) (P00747 20-810 limits assumed): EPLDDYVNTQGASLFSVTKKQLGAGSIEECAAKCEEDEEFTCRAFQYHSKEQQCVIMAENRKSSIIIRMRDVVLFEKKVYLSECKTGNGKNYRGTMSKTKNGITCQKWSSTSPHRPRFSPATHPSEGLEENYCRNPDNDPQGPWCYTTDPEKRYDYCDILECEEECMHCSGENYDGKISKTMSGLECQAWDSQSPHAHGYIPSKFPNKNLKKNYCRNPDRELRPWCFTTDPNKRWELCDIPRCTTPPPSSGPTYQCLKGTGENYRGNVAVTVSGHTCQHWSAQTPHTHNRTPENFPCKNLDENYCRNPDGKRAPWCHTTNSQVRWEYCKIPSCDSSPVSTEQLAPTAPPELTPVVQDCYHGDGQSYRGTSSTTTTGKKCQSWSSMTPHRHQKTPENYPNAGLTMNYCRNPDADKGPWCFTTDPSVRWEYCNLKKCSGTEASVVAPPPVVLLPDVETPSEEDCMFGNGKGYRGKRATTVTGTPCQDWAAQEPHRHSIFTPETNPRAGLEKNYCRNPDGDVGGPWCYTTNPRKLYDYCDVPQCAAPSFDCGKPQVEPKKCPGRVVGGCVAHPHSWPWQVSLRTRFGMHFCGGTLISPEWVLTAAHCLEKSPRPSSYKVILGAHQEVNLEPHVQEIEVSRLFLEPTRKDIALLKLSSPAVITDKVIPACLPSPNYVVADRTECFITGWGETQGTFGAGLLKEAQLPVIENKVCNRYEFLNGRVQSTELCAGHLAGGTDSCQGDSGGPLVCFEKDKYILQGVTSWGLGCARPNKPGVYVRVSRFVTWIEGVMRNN
molecule,measurement,setting,value
B1,"effect on LPS- or SAA-induced release of most other cytokines (G-CSF, IL-6, IL-12) and chemokines (KC, LIX, MIP-1α, MIP-2, RANTES)","[1]; data not shown, cells not specified",did not inhibit
same,lowest concentration at which inhibition of HMGB1 release was evident,[1]; murine macrophages,5.0 µg/mL
same,inhibition of LPS- or SAA-induced HMGB1 release,[1],dose-dependently inhibited
same,inhibition of LPS- or SAA-induced HMGB1 release,[1]; listed as recombinant human TN protein,capable of inhibiting
same,release of neutrophil-attracting chemokines (CXCL1/GRO-α/KC and CXCL5/ENA-78),[2],induced the release
same,release of neutrophil-attracting chemokines (CXCL1/GRO-α/KC and CXCL5/ENA-78),[2]; listed as Recombinant TN,specifically induced
same,release of neutrophil-attracting chemokines (CXCL1/GRO-α/KC and CXCL5/ENA-78),[2]; listed as recombinant TN,specifically stimulated
same,Kd,HMGB1,570 nM
same,effect on endotoxin-induced elevation of circulating D-dimer levels,[3]; P<0.05 vs +LPS alone,significantly attenuated
same,reduction of plasma D-dimer levels,[3]; at doses that conferred significant protection,40-50%
same,attenuation of LPS/SAA-induced HMGB1 release,HMGB1 release,dose-dependently attenuated
same,Kd,"plasminogen (PLMG); ref [57], read-out: Kd of calcium-sensitive TN-PLMG interaction",500 nM
same,Kd,"plasminogen (PLMG); ref [74], read-out: Kd of TN-PLMG interaction",500 nM
same,Kd,[4],13 nM

# Source: patent publication US11124558B2, “Use of tetranectin and peptide agonists to treat inflammatory diseases” (The Feinstein Institutes for Medical Research, priority 2017, dated 2021)
